Experimental data published in the domain aggregation screens of Martell et al. (2025).

Experiment: soluble fraction after stress (log2 fold change); higher = more stays soluble; pooled small domains, quantitative proteomics
Settings: stress: pH 4
In short: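 After pH 4 stress, pooled custom libraries of small protein domains were quantified with high-throughput quantitative proteomics. Aggregation propensity is taken from the fold change in each domain's soluble amount following the acid stress. The scale is log2, where higher values mean more stayed soluble.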

| Sequence | soluble fraction (log2) |
| --- | --- |
| HMEDDRMLVWFFRKSIQNGAQSEAEGRPIFEGKDYVHIQQPGERDYIEREAHQGDIGRWPRHWQAYQEGR | -0.359 |
| HMSDSGLPLPRFVSLGDDRVNARAGPGFRFPINWVYLRKNFPVEVIDEFGHWRRIKDIDGIEGWIHLSML | -0.734 |
| HMKEPGFAPPVRALAAAPITVLAQVAGTNPGEIRARLRAAGYPVASDQQSVQSLVGGDLKAQIGVLNRILA | -0.0568 |
| HMDRVSEITLTRLRDYAADGQVRTATLTHRTNVVTGTLRDGRRFSAGVPPMYGDELTTFLLDNGVRVDSDN | -0.276 |
| HMFPQVEVQLIYSYKSDRILNKMLKEFNVVILNQVFKDDILTSFHMNYSLVNQLITKIKSYPDISYKIIN | -0.89 |
| HMESSKLQASIINYLERRPTQKFTAEELFKGLSLEKASVFNELVKELTSLERSHKVEITADDKFKIARPQ | 0.0446 |
| HMQRQGTVATQQTPLNIRSQPSLSAQVIGQAPKGATVAILGESGDWYQIRYQNITGYSSKQYI | ≥ 0.43 |
| HMTNIDRLIGQTAIVKETINNKKEQGVVRINGMDWTARTEEIDEVILKGKPVEILDIQGIKLIVRKK | 0.161 |
| HMVDYIGRRGVMLSTVSEEKMGNAEVVIDGNSYNIYVKSLDGSTIAYHQEILIINKSKDNNYFLVQIY | -0.548 |
| HMVLLGAAIRELRIQKGITIEELAEMSGLSTGLISKIERDLGNPSISSLRKISRALGVPTAFFFA | -0.744 |
| HMNKNNLRNVSSKIRKSRRVLNLSQAELSKKLDISPSYLNLIESGKRPITVPLLIKLGNILGISLKDL | 0.201 |
| HMFSPSDEDLELAHRQIRAFEEVEANGKSIAVVDGRIVESLHIVTARDTLEKAKAITALAEEM | -0.0013 |
| HMDGYVPAERIASEVGVSARTITREMHGLEMTLMPYGIALLRRTGAGFMLAGTAKALADLRKHMTEDADTQ | 0.167 |
| HMRHTRQRQAVLDALVRSGQALSPQDLLGQAKSAVPSLNLSTVYRQIKGLQDAGQIVRVELPGQPPRFEM | -0.0347 |
| HMKPSTVSVPDVSGDKLSTAKMIIRKSGLKVGDVQKIEDDNVGAGKVVRTNPSAGSKKREGSSVDIFVASA | 0.111 |
| HMAKNIEVPNLVGSTISVARNDLKQLGLHVIVRDSVWSEDKKIDTILEQFPEPGKKLKPEGVVQVVVSI | 0.0706 |
| HMAKKDVESTLGGRLRVARVRAGLTQVELARMLGMNSVSLSNVEGGRRGLSMKQLVRVAKILEVPVAYLLG | 0.151 |
| HMNPDTERIREFVAVSLKNRKVATSGEIQNMIVKQFKNFKLKSHGYSNMKSFLSSIDKIQLNSNGKYSLK | 0.0764 |
| HMNKDEFLNELKSYLSILEDEEQADILEEYTQHIDMKISTGLSEAEAIRDFGNVSELAAQILEAY | -0.343 |
| HMAAEEAFPGGRIVQNAEENRLQILFDEIPGEDVRAALKSHGFRWSPKNKAWQRQLTQNAEYDARRILGI | -0.033 |
| HMQLEPLITSVIPVNFAKAGEVATTIKGKEVGLVSDRGSITAESRTNVLIVKDIKKNVDDISAMVKRLD | -0.0177 |
| HMAGTWQDQGNGQWKYQNDDGSYATGWIEDSGKSYYLDANGIMLANTTTPDGKQVGPDGALIP | -1.69 |
| HMNETTVPDVINQNISTGKIIIEDADLEYRIQYIPSEKSSSIGTIINSIPIYGKRVKSGTIVDLKVLG | -0.34 |
| HMAQLPADLSKVKSSQISDQQLTQIAQQAKNSGQSEQAVLQELKQRGLPDTEIQALGARISGLMQ | 0.404 |
| HMQAKQVAIPDVANYSVTDAIKKLQDAGFIVSDEQREEANETVSEGKVSRTSPAAGSIRKEGTEIILYKSL | 0.279 |

| Sequence | soluble fraction (log2) |
| --- | --- |
| HMQMGLNEAYRVLHVSPDAPWREVQSAYKERMAKSHPDKVSHLGEELQEKAKELTVEINKAYNTIKRYKK | -0.0378 |
| HMVSPEVEMLRAAVETMSERQKQVYELHYLRGFNVKETAAILGMSSPTVTAHKKRIMEIIKKFFE | -0.88 |
| HMESILDDFPGLGAVRRAALLEHFGDIDRLRAASAVEITEVDGFGDVLARELHDFLHRPKPDA | -0.768 |
| HMNQNAMIGAHIRNLRLAKKLTLKQLSDESGLSVGFLSQLERGMSSIAIDTLARLAHILGADLSSFF | -0.214 |
| HMETPQIVARGDLITMVFRSGSLVLTAKGKALENGAMGDTIRVVNSDSNKTLAARVSASREVTVSE | -0.146 |
| HMAEPYDERKVMEQMIPKGKNTIVAHLGHLKDHGETGYLQEALSYLRERESELGFDLKEVRALVHN | -0.223 |
| HMFPELDEEEQKITKLLQAQNDLPANIIAVKTALNIGTTQAKLFSLEMKGVVKPYAGGFYHLL | 0.0183 |
| HMSQEHTVPDYKDMEATVVYADLTQKGLNYEIAQETSPTIKEGNVTQTIPGMNEKVVSGDTITVFVSTGTG | -0.907 |
| HMAEIIVHEINRHLGESDEPVEFPEERREEAVAELLKNFHNDDAFRKMDDGKYEVALDGEAVREAARSLLA | -0.256 |
| HMATQTGTVKWFNEGKGFGFIAPDDGSKDLFAHFSEIKTTGFKTLAEAQRVEFEVTEGRKGLQASNIK | -0.244 |
| HMDYEVPEELQQKFEEFPRLKEAFYQLTPGRQHQYLYYFSQAKRSQTRYNRIDKYMNAILQGKGMK | 0.167 |
| HMAGRKMMVMANNLSVRKSANSLSEKLADLSRGDTVEYISSTNGWNKVRYKGQIGYVSSYYLKDTGEEVE | 0.216 |
| HMGDWEDFWEKEARRRKLSLDYQVVRSLSRWSREYDWGEEDVEQFLSQFPEGETVKMEDVELYFE | -1.41 |
| HMLGKEVVRAYNISYAIDDKGSLQGDLTAALTGLIPLSKPPVLDQRNRSLYVTATPEQHKDVAALLAKL | -0.364 |
| HMRNDIFDQLTEREMQILQEVAKGYRNKQIADHLFISESTVKVHMKSLLKKLQVPSRTAATVLYLERYG | -0.406 |
| HMGAPVIYELTAESAAGQRIDKYLSGQLADLSRSYLQKLLKDGGVEVNKKPVKSNYKLSEGDQIRLEVPEA | -0.198 |
| HMSNDRSYLARLQDYYAEHRALPSYASIGALLGLRSKSSVAALVARLKLAGFVESTPDRRLAPTRRFF | 0.344 |
| HMLVTQSITVPMAMSGIRLDAALAMLFPDHSRNRLKAWLDDGHILVDGAVWAGKQRLEGNEEITATLPEAK | -0.189 |
| HMRRATLERLANNTAEKAIRYKRSLALEPMNPQERRIIHAALQEVEGVSTHSVGTEPNRKVIVVPDGV | -0.186 |
| HMVVKLTQEQDRFIKTFNDKSLAFYYISSWGWGSFLRNGIGGVYEGDKTPFTLDEKEKMLNAIINGYEVI | -1.36 |
| HMSPRAIYVTTSDLNMRMQPSPNAYKRGVAPRGTELLVVEWGDDWSKVIFEGDTAYAASRYLSYVKDEP | -0.419 |
| HMKRLLLPGDLAGVRRHLLDRENSFHILRVLRLARGSTIEAMDDAGNRFSATLAGVKAGRALFDLAAKI | -0.245 |
| HMVEMSNMELVREQYFQNLIYNVGDWVKDSKTEITGEVVKRGTNYLTIVQEDFTLHKVWLEDAESME | -1.46 |
| HMQMSDTSMIRDLVLQVLAENPQSIEDFKNGKDRAVGFLVGMVMKKSQGKANPQITNQMIVEELKK | -0.277 |
| HMGPKPVDMSPIPEGQRNQVLHDWMYGRAANHPENWGQIRSDALERGLKSGLKADEIHAITGSVARALGLE | 0.0794 |

| Sequence | soluble fraction (log2) |
| --- | --- |
| HMSVFGDNVARLRAEHGMSQRALAERLEITNGTVAAWESRDTLPDYDRIRQIAEIFDVPIPQLFAKYIP | -1.2 |
| HMDIVENSMPNVVGLELNRAKELMTQLGFTNVRYEPTESSRPENEVVYQSVDKDETLDVSSEIIIQYSSGV | -0.535 |
| HMRGRFGNAAPARNLGDHPQGGAINVKAGRYGPYVSWGKVNATLPKDSDPEKVTLEEAVALIAAKQSGQG | 0.218 |
| HMYPDNEQTLSKLAFEFFKKRNIPISQSNINQIVTKSLGDRENLYNELLKIENFSTSGKKLTDNVIKKLIN | 0.176 |
| HMGVSLREVPVAEHGDWIGRPIKELGIPAEVLIVLVRRADGTTVVPKGGTVLQQGDMLVVNEWEE | -1.25 |
| HMTKTEFLEALRRALNGNMAAASVEDNLKFYENYFYSEEAKGRSEAAVLSELGDPRILARTLIDAAER | -0.816 |
| HMEITRDTVIQWLEAERRSQTWLSKQLGVSVQAVSNWLREKNPQTISASAQITIRALMEEDAAK | 0.00665 |
| HMPETAQLTDIQVSRSQAHTGIFSLHYYLTGTDSRGERVRLEISGDDYTRLSGSSSVTVEYYRHTGRIVRY | -0.552 |
| HMGSEISYSEFLNRVEQGQVAAVRLDGEQIFITGPTGEAYQTIQPRNTDVLPDLREAGVEIQAAPQ | -0.675 |
| HMRQSSLRTRELLIDAARQLFARFGVEKTTMNDIAEASKRGRRTVYMYFNSKSDVFYAVVGRE | -0.116 |
| HMPYLVNGFILEVQSDDNNPVGTLKRRYAVAKNKQGVILLEGEKSFSSNDQILINELKFYIQSNDLKA | -1.39 |
| HMAQKQLYIAGTDYTKNSTSQLVLAYFPAKPSSIKIFFDGIYQNKDKWSLFGKTIIFGLPISSNAVEVHYE | -0.201 |
| HMPRRSYLDARKKLLGMLNSPDFNSGDQIPAERELSEVLGISRVTVRKIITELIDEGVLERRGNQGTWLVD | -0.48 |
| HMDSSALEPIVDQIIADNPKQVEQFQAGKTKVLGFFVGQVMKQTDGTANPKQVNELVAARLKSA | 0.0973 |
| HMKNAYDLKMLVKDNDGNIERNMKYYFFLANGSKVEGITDDNGYTKTITTIQPEKADLHLINDELI | -0.0557 |
| HMVQDDLRELEGISTELLAKLADAGITNRDDLADLAIDELVAITGQSEDDAKALIMKAREHWFAGDA | -1.09 |
| HMENFKVFMKAVQEVSPVPVRFDEISSGAKGYYSNTEKEIVIQNGMSESQTMKTGIHEVTHAMLHDRDF | 0.22 |
| HMSLTEESAKSLIGLTENEAVKVAAERGWTVRVAMRDGEAFMLTQDYSENRVNLTVMKTLVTAVTI | -0.0567 |
| HMESVQWSVFPSAKYVTIISFDPTTSGGSATAKFKVSDEARSKGFRFRIEAAIGEGIMRSEMYVIEE | -0.0704 |
| HMGYINLNVKVSPEWRDFWRSAYASVVAGYHQNKEHWNTIILDGSIPDKDIKRMIAESYDLVSD | -0.662 |
| HMEQVLNVAVRRGELIMSSAAEQTVRIYSSAGSMVWQGKVSASDVTVELPSGVYVVNGKKVV | -0.513 |
| HMHPLFRVVLAGEPNGVGLDDWLTRHEAELINGPSAIGVLTVKIAMGRRSFETVLDEIRADGETIFVEPV | -2.02 |
| HMEVTENQEKHAYQEAMDQALRFLAPRFLSRAELTRKLLQKEHDRDVIDAVIDRLEELDYVDDAR | -0.69 |
| HMKNLADNIVALRKKHGLSQEQFAEKIDVTRQAVSNWERRIATPDVETIDLIAKLFDTDLTALVNG | -0.129 |
| HMTPGPYETLKPAPLGSYIEPKIGFATAIEIARKEAVQLGIKTEAGGIWYGGDFPFYNVSFFDPDD | -0.985 |
